Measurements as given in article PMC4950921.

Experiments:
[1] = target: EphA2 L223R/L254R/V255R mutant (UniProt P29317)
[2] = target: EphA2 L223R/L254R/V255R mutant (UniProt P29317); remark: listed apart in the source

Sequence of UniProt P29317 (P29317 24-976 L223R/L254R/V255R): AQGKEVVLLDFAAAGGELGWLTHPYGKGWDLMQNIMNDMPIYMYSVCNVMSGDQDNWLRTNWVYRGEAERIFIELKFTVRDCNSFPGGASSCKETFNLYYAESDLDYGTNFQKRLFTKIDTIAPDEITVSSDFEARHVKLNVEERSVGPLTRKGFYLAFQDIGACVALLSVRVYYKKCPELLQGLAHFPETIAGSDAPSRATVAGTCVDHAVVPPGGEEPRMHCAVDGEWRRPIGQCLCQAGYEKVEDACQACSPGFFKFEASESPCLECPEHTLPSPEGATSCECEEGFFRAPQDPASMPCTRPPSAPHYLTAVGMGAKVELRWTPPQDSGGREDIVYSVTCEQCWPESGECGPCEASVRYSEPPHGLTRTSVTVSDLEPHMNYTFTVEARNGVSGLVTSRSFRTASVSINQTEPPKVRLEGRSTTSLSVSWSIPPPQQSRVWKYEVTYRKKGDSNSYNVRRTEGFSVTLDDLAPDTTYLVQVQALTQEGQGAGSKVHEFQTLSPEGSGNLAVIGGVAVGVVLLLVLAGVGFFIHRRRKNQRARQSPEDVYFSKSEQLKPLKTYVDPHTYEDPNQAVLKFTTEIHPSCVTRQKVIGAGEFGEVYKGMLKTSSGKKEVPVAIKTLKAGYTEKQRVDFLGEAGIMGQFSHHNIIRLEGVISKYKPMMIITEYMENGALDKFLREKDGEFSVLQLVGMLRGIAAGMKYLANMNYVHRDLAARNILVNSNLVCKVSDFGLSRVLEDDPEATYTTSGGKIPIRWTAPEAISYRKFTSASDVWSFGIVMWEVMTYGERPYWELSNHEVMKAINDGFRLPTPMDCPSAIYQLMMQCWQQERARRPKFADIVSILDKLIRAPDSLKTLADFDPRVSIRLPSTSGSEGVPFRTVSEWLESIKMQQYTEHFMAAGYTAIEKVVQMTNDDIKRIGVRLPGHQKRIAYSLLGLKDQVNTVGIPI

B1: YSA peptide with the GSGSK linker (peptide)
peptide: YSAYPDSVPMMSGSGSK
B1 was tested, and the suppression of migration of transfected HEK293T cells, transwell assay, 6 uM YSA [1] was 25% and the decrease of EphA2 Ser897 phosphorylation, Western blot, HEK293T, 6 uM YSA [2] was 35%.
